Reference: paper PMC6098157

Biological target: TIR1 (transport inhibitor response 1), codon-optimized rice TIR1 (rice)

B1: mAID^K→R-vhhGFP4^K→R (lysine-less mAID-nanobody) (VHH)
chain: ACPRDPARPPARAQVVGWPPVRSYRRNVMVSCQRSSGGPEAAAFVRVSMDGAPYLRRIDLRMYRMDQVQLVESGGALVQPGGSLRLSCAASGFPVNRYSMRWYRQAPGREREWVAGMSSAGDRSSYEDSVRGRFTISRDDARNTVYLQMNSLRPEDTAVYYCNVNVGFEYWGQGTQVTVSS
B1 was tested, and the GFP-PCNA left at 22 hpf in zebrafish retinal neuroepithelium cells expressing TIR1 and mAID-nanobody, with 0.5 mM IAA as the bridging auxin (% of original GFP-PCNA levels) was < 20 and the GFP-PCNA left at 22 hpf in zebrafish retinal neuroepithelium cells expressing TIR1 and mAID-nanobody, with 0.5 mM NAA as the bridging auxin (% of original GFP-PCNA levels) was 12.
